# Data: the supplement of paper PMC10567573
# B1: ZNF511 (parent)
# chain: YEHHYHTLHGNVCSFCKRAFPSGH
# Variants of: B1
# Assay: protein stability index of a GFP-peptide fusion (GPS, HEK-293T) (PSI 1-6); higher = more stable
# Conditions: c terminus: a fixed tail appended
# 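Note: lentivirally expressed fusions sorted by FACS into six bins by GFP to DsRed ratio, PSI derived from sequencing read proportions per bin multiplied by bin number.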
row,Variant,protein stability index
1,YEHHYHTLHGNVCSFCERAFPSGH,2.59
2,YEHHYHTLHGNVCSFCRRAFPSGH,2.2
3,YEHHYHTLHGNVCSFCNRAFPSGH,2.18
4,YEHHYHTLHGNVCSFCMRAFPSGH,1.77
5,YEHHYHTLHGNVCSFCFRAFPSGH,1.84
6,YEHHYHTLHGNVCSFCGRAFPSGH,2.61
7,YEHHYHTLHGNVCSFCPRAFPSGH,1.78
8,YEHHYHTLHGNVCSFCHRAFPSGH,2.18
9,YEHHYHTLHGNVCSFCLRAFPSGH,2.4
10,YEHHYHTLHGNVCSFCCRAFPSGH,1.89
11,YEHHYHTLHGNVCSFCQRAFPSGH,2.41
12,YEHHYHTLHGNVCSFCYRAFPSGH,1.77
13,YEHHYHTLHGNVCSFCTRAFPSGH,2.02
14,YEHHYHTLHGNVCSFCWRAFPSGH,1.3
15,YEHHYHTLHGNVCSFCVRAFPSGH,1.87
16,YEHHYHTLHGNVCSFCARAFPSGH,2.23
17,YEHHYHTLHGNVCSFCSRAFPSGH,2.22
18,YEHHYHTLHGNVCSFCIRAFPSGH,1.84
19,YEHHYHTLHGNVCSFCDRAFPSGH,2.5
20,YEHHYHTLHGNVCSFCKIAFPSGH,1.6
21,YEHHYHTLHGNVCSFCKFAFPSGH,1.94
22,YEHHYHTLHGNVCSFCKHAFPSGH,2.29
23,YEHHYHTLHGNVCSFCKAAFPSGH,2.06
24,YEHHYHTLHGNVCSFCKDAFPSGH,2.46

row,Variant,protein stability index
1,YEHHYHTLHGNVCSFCKKAFPSGH,2.23
2,YEHHYHTLHGNVCSFCKGAFPSGH,2.27
3,YEHHYHTLHGNVCSFCKLAFPSGH,2.17
4,YEHHYHTLHGNVCSFCKCAFPSGH,1.89
5,YEHHYHTLHGNVCSFCKEAFPSGH,2.14
6,YEHHYHTLHGNVCDFCKRAFPSGH,2.4
7,YEHHYHTLHGNVCQFCKRAFPSGH,2.88
8,YEHHYHTLHGNVCMFCKRAFPSGH,2.3
9,YEHHYHTLHGNVCGFCKRAFPSGH,1.88
10,YEHHYHTLHGNVCYFCKRAFPSGH,3.38
11,YEHHYHTLHGNVCAFCKRAFPSGH,2.94
12,YEHHYHTLHGNVCEFCKRAFPSGH,2.53
13,YEHHYHTLHGNVCFFCKRAFPSGH,2.03
14,YEHHYHTLHGNVCIFCKRAFPSGH,2.53
15,YEHHYHTLHGNVCHFCKRAFPSGH,2.31
16,YEHHYHTLHGNVCCFCKRAFPSGH,2.39
17,YEHHYHTLHGNVCLFCKRAFPSGH,2.04
18,YEHHYHTLHGNVCRFCKRAFPSGH,2.87
19,YEHHYHTLHGNVCVFCKRAFPSGH,1.38
20,YEHHYHTLHGNVCKFCKRAFPSGH,2.3
21,YEHHYHTLHGNVCWFCKRAFPSGH,2.53
22,YEHHYHTLHGNVCPFCKRAFPSGH,3.3
23,YEHHYHTLHGNVCNFCKRAFPSGH,2.57
24,YEHHYHTLHGNVCTFCKRAFPSGH,2.23

row,Variant,protein stability index
1,YEHHYHTLHGNVCSFKKRAFPSGH,2.35
2,YEHHYHTLHGNVCSFGKRAFPSGH,2
3,YEHHYHTLHGNVCSFWKRAFPSGH,1.62
4,YEHHYHTLHGNVCSFRKRAFPSGH,2.17
5,YEHHYHTLHGNVCSFTKRAFPSGH,2.4
6,YEHHYHTLHGNVCSFMKRAFPSGH,2.01
7,YEHHYHTLHGNVCSFNKRAFPSGH,2.12
8,YEHHYHTLHGNVCSFLKRAFPSGH,2.1
9,YEHHYHTLHGNVCSFFKRAFPSGH,1.99
10,YEHHYHTLHGNVCSFYKRAFPSGH,2.09
11,YEHHYHTLHGNVCSFHKRAFPSGH,1.82
12,YEHHYHTLHGNVCSFEKRAFPSGH,2.5
13,YEHHYHTLHGNVCSFVKRAFPSGH,2.14
14,YEHHYHTLHGNVCSFAKRAFPSGH,2.05
15,YEHHYHTLHGNVCSFPKRAFPSGH,2.02
16,YEHHYHTLHGNVCSFSKRAFPSGH,1.71
17,YEHHYHTLHGNVCSFQKRAFPSGH,2.26
18,YEHHYHTLHGNVCSFIKRAFPSGH,1.86
19,YEHHYHTLHGNVCSFDKRAFPSGH,2.17
20,YEHHYHTLHGNVSSFCKRAFPSGH,2.22
21,YEHHYHTLHGNVRSFCKRAFPSGH,2.17
22,YEHHYHTLHGNVTSFCKRAFPSGH,1.97
23,YEHHYHTLHGNVWSFCKRAFPSGH,1.52
24,YEHHYHTLHGNVYSFCKRAFPSGH,1.78

row,Variant,protein stability index
1,YEHHYHTLHGNVPSFCKRAFPSGH,2.11
2,YEHHYHTLHGNVQSFCKRAFPSGH,2.63
3,YEHHYHTLHGNVVSFCKRAFPSGH,1.92
4,YEHHYHTLHGNVCSYCKRAFPSGH,2.31
5,YEHHYHTLHGNVCSVCKRAFPSGH,2
6,YEHHYHTLHGNVCSRCKRAFPSGH,2.35
7,YEHHYHTLHGNVCSACKRAFPSGH,2.76
8,YEHHYHTLHGNVCSSCKRAFPSGH,2.39
9,YEHHYHTLHGNVCSHCKRAFPSGH,2.39
10,YEHHYHTLHGNVCSICKRAFPSGH,2.38
11,YEHHYHTLHGNVCSECKRAFPSGH,2.79
12,YEHHYHTLHGNVCSNCKRAFPSGH,2.72
13,YEHHYHTLHGNVCSTCKRAFPSGH,2.99
14,YEHHYHTLHGNVCSQCKRAFPSGH,3.25
15,YEHHYHTLHGNVCSCCKRAFPSGH,3.02
16,YEHHYHTLHGNVCSPCKRAFPSGH,2.01
17,YEHHYHTLHGNVCSDCKRAFPSGH,2.48
18,YEHHYHTLHGNVCSLCKRAFPSGH,2.32
19,YEHHYHTLHGNVCSGCKRAFPSGH,2.93
20,YEHHYHTLHGNVCSMCKRAFPSGH,2.54
21,YEHHYHTLHGNVCSKCKRAFPSGH,2.21
22,YEHHYHTLHGNVCSWCKRAFPSGH,2.96
